# Target: Full-length mouse melanocyte-type myosin-5a (Myo5a-FL) (mouse) (UniProt Q99104)
# Sequence (Q99104 whole entry): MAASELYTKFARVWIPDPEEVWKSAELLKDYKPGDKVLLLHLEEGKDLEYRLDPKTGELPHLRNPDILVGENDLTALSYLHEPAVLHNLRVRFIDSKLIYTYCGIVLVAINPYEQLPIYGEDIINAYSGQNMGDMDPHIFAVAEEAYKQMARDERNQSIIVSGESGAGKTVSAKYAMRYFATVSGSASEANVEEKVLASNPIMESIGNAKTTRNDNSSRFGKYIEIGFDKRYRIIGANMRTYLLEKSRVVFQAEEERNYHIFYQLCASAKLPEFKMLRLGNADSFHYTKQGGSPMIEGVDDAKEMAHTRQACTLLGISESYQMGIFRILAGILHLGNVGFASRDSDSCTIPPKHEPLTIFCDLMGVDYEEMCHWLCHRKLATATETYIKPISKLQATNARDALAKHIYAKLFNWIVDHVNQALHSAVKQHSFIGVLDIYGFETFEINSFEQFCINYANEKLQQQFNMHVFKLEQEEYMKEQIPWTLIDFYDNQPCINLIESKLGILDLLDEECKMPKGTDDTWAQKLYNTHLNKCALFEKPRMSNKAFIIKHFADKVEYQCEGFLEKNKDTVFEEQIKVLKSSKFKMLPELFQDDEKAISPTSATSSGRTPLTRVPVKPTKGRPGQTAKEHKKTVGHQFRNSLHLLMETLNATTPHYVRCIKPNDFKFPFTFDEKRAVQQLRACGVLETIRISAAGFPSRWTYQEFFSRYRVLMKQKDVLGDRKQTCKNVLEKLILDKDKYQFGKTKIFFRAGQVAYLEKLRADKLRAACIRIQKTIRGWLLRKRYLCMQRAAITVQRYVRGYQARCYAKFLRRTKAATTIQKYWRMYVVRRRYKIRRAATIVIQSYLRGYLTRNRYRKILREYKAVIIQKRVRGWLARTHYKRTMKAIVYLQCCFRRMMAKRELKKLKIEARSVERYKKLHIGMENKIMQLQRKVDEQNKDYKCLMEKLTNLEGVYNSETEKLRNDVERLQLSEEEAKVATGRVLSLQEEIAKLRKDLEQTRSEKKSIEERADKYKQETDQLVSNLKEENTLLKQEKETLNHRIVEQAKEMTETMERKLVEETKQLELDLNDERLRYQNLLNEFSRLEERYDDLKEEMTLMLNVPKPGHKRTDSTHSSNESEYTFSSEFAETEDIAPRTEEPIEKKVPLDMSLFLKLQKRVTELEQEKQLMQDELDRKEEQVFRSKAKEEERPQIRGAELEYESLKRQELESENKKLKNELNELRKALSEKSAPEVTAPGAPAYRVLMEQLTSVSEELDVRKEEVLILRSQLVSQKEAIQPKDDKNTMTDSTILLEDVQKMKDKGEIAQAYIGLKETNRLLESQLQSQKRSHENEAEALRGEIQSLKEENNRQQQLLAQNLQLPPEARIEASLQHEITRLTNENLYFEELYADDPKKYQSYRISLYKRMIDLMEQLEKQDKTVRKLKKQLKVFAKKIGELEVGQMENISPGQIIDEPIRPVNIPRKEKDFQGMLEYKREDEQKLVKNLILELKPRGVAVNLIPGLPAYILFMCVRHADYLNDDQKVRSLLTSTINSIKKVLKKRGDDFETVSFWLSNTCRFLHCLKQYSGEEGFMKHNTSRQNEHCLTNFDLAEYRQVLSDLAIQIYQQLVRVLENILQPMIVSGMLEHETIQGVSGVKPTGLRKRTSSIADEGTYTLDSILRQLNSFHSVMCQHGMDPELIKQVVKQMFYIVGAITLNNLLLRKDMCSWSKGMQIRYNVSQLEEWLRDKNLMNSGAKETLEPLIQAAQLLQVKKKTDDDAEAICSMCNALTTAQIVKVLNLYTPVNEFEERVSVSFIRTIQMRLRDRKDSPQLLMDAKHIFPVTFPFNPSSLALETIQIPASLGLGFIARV
binder,measurement,value
"RDQPLNSKKKKRLLSFRDVDFEEDSDY [Mlph-GTBDP, 26-residue Myo5a-GTD binding peptide of melanophilin with a C-terminal tyrosine]","stimulation of the actin-activated ATPase activity of Myo5a-FL by Mlph-GTBDP (EGTA conditions, 40 uM actin), hyperbolic fit: apparent Kd",19.8 µM
